In US20210163580A1 (NATIONAL HEALTH RESEARCH INSTITUTES, published 2021):
Positions of bridges follow the written chain, without caps; N, C: chain ends. No end group written: not given here.

Columns and labels:
[1] = biological target: T1, recombinant human RSPO3 protein (human, UniProt Q9BXY4 22-272); assay: cell-based or functional assay
T1 sequence (looked up): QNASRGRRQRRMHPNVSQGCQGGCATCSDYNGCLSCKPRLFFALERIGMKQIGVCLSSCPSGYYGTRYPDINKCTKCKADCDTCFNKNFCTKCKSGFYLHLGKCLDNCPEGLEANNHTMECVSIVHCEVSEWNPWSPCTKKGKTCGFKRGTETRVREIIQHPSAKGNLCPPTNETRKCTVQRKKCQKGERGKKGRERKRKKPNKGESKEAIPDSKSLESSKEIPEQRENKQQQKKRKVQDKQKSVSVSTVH

[2] = biological target: T1, recombinant human RSPO3 protein; assay: SPR (Biacore T200); hRSPO3 immobilised on CM5 chip, antibody injected, single-cycle, 1:1 model
Description: FIG. 7 is a graph showing use of Biacore to measure the binding kinetics of α-RSPO3 Abs-antigen interaction. The binding sensorgrams were generated using a Biacore T200 and then fitted to a simple 1:1 interaction model. […] The association was monitored for 2 min, and the final dissociation time was 15 min hRSPO3 was immobilized on a CMS chip at 27.5 RU.
The binding kinetics between α-RSPO3 Abs and recombinant human RSPO3 protein (hRSPO3) were performed at 25° C. using a Biacore T200 biosensor equipped with a CMS Series S Sensor Chip (GE Healthcare). […] Obtained sensorgrams were corrected by double subtracting the signal obtained on a reference surface and the signal of the running buffer. Sensograms were fit globally with BIAcore T200 evaluation software 3.0 using 1:1 binding model to yield affinity constants (KD values) for α-RSPO3 Abs. Replicate measurements were made in separate experiments, using independently prepared α-RSPO3 Abs dilution series and huRSPO3-coated chip surfaces.

[3] = biological target: T1, recombinant human RSPO3 protein; assay: competition ELISA on coated hRSPO3; blocked ligand: biotinylated LGR5 (22-560)-Fc, streptavidin-HRP [A]
Description: After removing extra detection antibodies by washing the plates with 1× PBST, a TMB substrate solution was added to each well for 10 minutes.
Recombinant human RSPO3 (Peprotech) at 500 ng/ml was coated on the plates.

peptide B-40-47 = biological target: T2, peptide B-40-47 (Homo sapiens, UniProt Q9BXY4, disulfide (positions not given here); also: biotinylated, intrachain disulfide, Cys pairing not given here); assay: ELISA: biotinylated cyclic peptide (1 µg/ml) on NeutrAvidin plate, hB1, anti-human IgG-Fc-HRP, OD 450 [B]
T2 construct: synthetic cyclic peptide, a.a; also called cyclic peptide a.a; 40-47 derived from hRSPO3
T2 peptide (looked up): CQGGCATC
Description: (§1) FIG. 9 is a set of schematics and graphs showing epitope studies of several α-RSPO3 antibodies. […] Streptavidin-HRP was then added for detection of the bound biotinylated antibody. (B) The biotinylated cyclic peptides, at 1 μg/ml, and biotinylated recombinant human RSPO3, at 100 ng/ml, were applied to NeutrAvidin pre-coated plates. […] To detect bound anti-RSPO3 antibodies, Goat anti-human IgG-Fc-HPR (Chemicon) was then applied to the plates.
(§2) Further conformation epitope studies of α-RSPO3 Abs were performed using recombinant RSPO3 truncated proteins and cyclic peptides scanning to narrow down their target sequences. […] RSPO3 contains a furin-like cysteine-rich region. Until now, the 3D structure of RSPO3 has not been reported. Additionally, four cyclic peptides (a.a. 40-47, 44-53, 56-75 and 79-94) were designed to measure the binding of α-RSPO3 mAbs to the cyclic peptides derived from hRSPO3.

peptide B-44-53 = biological target: T3, peptide B-44-53 (Homo sapiens, UniProt Q9BXY4, disulfide (positions not given here); also: biotinylated, intrachain disulfide, Cys pairing not given here); assay: as above
T3 construct: synthetic cyclic peptide, a.a; also called cyclic peptide a.a; 44-53 derived from hRSPO3
T3 peptide (looked up): CATCSDYNGC
Description: as §1, §2

peptide B-79-94 = biological target: T4, peptide B-79-94 (Homo sapiens, UniProt Q9BXY4, disulfide 1-16 (inferred); also: biotinylated); assay: as above
T4 construct: synthetic cyclic peptide, a.a; also called cyclic peptide a.a; 79-94 derived from hRSPO3
T4 peptide (looked up): CPSGYYGTRYPDINKC
Description: as §1, §2

IC50 in the WNT reporter assay (MDA-MB436 TCF/LEF-Luc, Wnt3a plus hRSPO3) [1]: 58 nM | Kd [2]: 0.0268 nM | koff [2]: 3.4e-05 s⁻¹ | kon [2]: 1.7e+06 M⁻¹ s⁻¹ | IC50 (read off the curve) [3]: ~0.9 mg/L | binding result (peptide B-40-47): no binding | binding result (peptide B-44-53): no binding | binding result (peptide B-79-94): no binding
B1: humanized anti-RSPO3 antibody hB1 (antibody, V domains shown)
VH: QIQLQESGPGLVKPSESLSLTCSVTGYSITSGYYWNWIRQFPGNGLEWMGYISYDGTNNYNPSLKDRISITRDTSKNQFFLKLNSVTAADTATYYCSVLLIQYFNIWGKGTTVTVSS
VL: DIQMTQSPSSLSASVGERVTITCRTSESVNNFLAWFHQKPGKSPKLLVYHAKTLADGVSSRFSGSGSGTQYSLKINSLQPEDFGNYYCQHFWSIPWTFGGGTKLEIKR
notes: Humanized from murine B1
